Where “and” joins values, the source holds several entries; their conditions need not be identical. Equal values may be shown once.
How the values were obtained:
[1] = molecular target: full-length Mff (mitochondrial fission factor), reconstituted in CL-free nanotubes or liposomes; assay: cell-based or functional assay
[2] = molecular target: the molecule itself; assay: SEC-MALS; full-length Drp1 WT and mutants, nucleotide-free, each loaded at 10 μM in 500 μl onto Superose 6 10/300 GL in Buffer A (20 mM HEPES pH 7.5, 150 mM KCl) with 1 mM DTT
[3] = molecular target: the molecule itself; assay: SEC-MALS; included (soluble) fraction of Drp1ΔVD loaded at 6 μM onto Superose 6 10/300 GL

Row | Binder | Mff-stimulated GTPase activity on NT compared to Drp1 WT [1] [fold] | stoichiometry N [2] | stoichiometry N [3]
1 | Drp1 R247A (full-length) (natural protein, human, UniProt O00429-4 1-699, looked up, dynamin-related protein 1 (Drp1), human, full length, with R247A in the GTPase domain; source: E. coli BL21 Star (DE3), purified) MEALIPVINKLQDVFNTVGADIIQLPQIVVVGTQSSGKSSVLESLVGRDLLPRGTGIVTRRPLILQLVHVSQEDKRKTTGEENGVEAEEWGKFLHTKNKLYTDFDEIRQEIENETERISGNNKGVSPEPIHLKIFSPNVVNLTLVDLPGMTKVPVGDQPKDIELQIRELILRFISNPNSIILAVTAANTDMATSEALKISREVDPDGRRTLAVITKLDLMDAGTDAMDVLMGRVIPVKLGIIGVVNASQLDINNKKSVTDSIRDEYAFLQKKYPSLANRNGTKYLARTLNRLLMHHIRDCLPELKTRINVLAAQYQSLLNSYGEPVDDKSATLLQLITKFATEYCNTIEGTAKYIETSELCGGARICYIFHETFGRTLESVDPLGGLNTIDILTAIRNATGPRPALFVPEVSFELLVKRQIKRLEEPSLRCVELVHEEMQRIIQHCSNYSTQELLRFPKLHDAIVEVVTCLLRKRLPVTNEMVHNLVAIELAYINTKHPDFADACGLMNNNIEEQRRNRLARELPSAVSRDKVASGGGGVGDGVQEPTTGNWRGMLKTSKAEELLAEEKSKPIPIMPASPQKGHAVNLLDVPVPVARKLSAREQRDCEVIERLIKSYFLIVRKNIQDSVPKAVMHFLVNHVKDTLQSELVGQLYKSSLLDDLLTESEDMAQRRKEAADMLKALQGASQIIAEIRETHLW | 3 | 2 and 4 | 
2 | full-length Drp1 WT (Drp1 short; human isoform 3; 699 a.a.) (natural protein, UniProt O00429-4 1-699, looked up, dynamin-related protein 1 (Drp1), human, short isoform; human isoform 3; 699 a.a; also called Drp1-short-80-loop; dynamin-related protein 1; source: E. coli BL21 Star (DE3), purified) MEALIPVINKLQDVFNTVGADIIQLPQIVVVGTQSSGKSSVLESLVGRDLLPRGTGIVTRRPLILQLVHVSQEDKRKTTGEENGVEAEEWGKFLHTKNKLYTDFDEIRQEIENETERISGNNKGVSPEPIHLKIFSPNVVNLTLVDLPGMTKVPVGDQPKDIELQIRELILRFISNPNSIILAVTAANTDMATSEALKISREVDPDGRRTLAVITKLDLMDAGTDAMDVLMGRVIPVKLGIIGVVNRSQLDINNKKSVTDSIRDEYAFLQKKYPSLANRNGTKYLARTLNRLLMHHIRDCLPELKTRINVLAAQYQSLLNSYGEPVDDKSATLLQLITKFATEYCNTIEGTAKYIETSELCGGARICYIFHETFGRTLESVDPLGGLNTIDILTAIRNATGPRPALFVPEVSFELLVKRQIKRLEEPSLRCVELVHEEMQRIIQHCSNYSTQELLRFPKLHDAIVEVVTCLLRKRLPVTNEMVHNLVAIELAYINTKHPDFADACGLMNNNIEEQRRNRLARELPSAVSRDKVASGGGGVGDGVQEPTTGNWRGMLKTSKAEELLAEEKSKPIPIMPASPQKGHAVNLLDVPVPVARKLSAREQRDCEVIERLIKSYFLIVRKNIQDSVPKAVMHFLVNHVKDTLQSELVGQLYKSSLLDDLLTESEDMAQRRKEAADMLKALQGASQIIAEIRETHLW |  | 4 and 2 | 
3 | Drp1 G350D (full-length stalk L1N mutant) (natural protein, human, UniProt O00429-4 1-699, looked up, dynamin-related protein 1 (Drp1), human, short isoform (isoform 3, 699 a.a.) with G350D; source: E. coli BL21 Star (DE3), purified) MEALIPVINKLQDVFNTVGADIIQLPQIVVVGTQSSGKSSVLESLVGRDLLPRGTGIVTRRPLILQLVHVSQEDKRKTTGEENGVEAEEWGKFLHTKNKLYTDFDEIRQEIENETERISGNNKGVSPEPIHLKIFSPNVVNLTLVDLPGMTKVPVGDQPKDIELQIRELILRFISNPNSIILAVTAANTDMATSEALKISREVDPDGRRTLAVITKLDLMDAGTDAMDVLMGRVIPVKLGIIGVVNRSQLDINNKKSVTDSIRDEYAFLQKKYPSLANRNGTKYLARTLNRLLMHHIRDCLPELKTRINVLAAQYQSLLNSYGEPVDDKSATLLQLITKFATEYCNTIEDTAKYIETSELCGGARICYIFHETFGRTLESVDPLGGLNTIDILTAIRNATGPRPALFVPEVSFELLVKRQIKRLEEPSLRCVELVHEEMQRIIQHCSNYSTQELLRFPKLHDAIVEVVTCLLRKRLPVTNEMVHNLVAIELAYINTKHPDFADACGLMNNNIEEQRRNRLARELPSAVSRDKVASGGGGVGDGVQEPTTGNWRGMLKTSKAEELLAEEKSKPIPIMPASPQKGHAVNLLDVPVPVARKLSAREQRDCEVIERLIKSYFLIVRKNIQDSVPKAVMHFLVNHVKDTLQSELVGQLYKSSLLDDLLTESEDMAQRRKEAADMLKALQGASQIIAEIRETHLW |  | 2 | 
4 | Drp1ΔVD (Δ514–602) (natural protein, human, UniProt O00429-4 1-699, looked up, dynamin-related protein 1 (Drp1), human, with the variable domain deleted (Δ514–602); ~70 kDa monomer; source: E. coli BL21 Star (DE3), purified) MEALIPVINKLQDVFNTVGADIIQLPQIVVVGTQSSGKSSVLESLVGRDLLPRGTGIVTRRPLILQLVHVSQEDKRKTTGEENGVEAEEWGKFLHTKNKLYTDFDEIRQEIENETERISGNNKGVSPEPIHLKIFSPNVVNLTLVDLPGMTKVPVGDQPKDIELQIRELILRFISNPNSIILAVTAANTDMATSEALKISREVDPDGRRTLAVITKLDLMDAGTDAMDVLMGRVIPVKLGIIGVVNRSQLDINNKKSVTDSIRDEYAFLQKKYPSLANRNGTKYLARTLNRLLMHHIRDCLPELKTRINVLAAQYQSLLNSYGEPVDDKSATLLQLITKFATEYCNTIEGTAKYIETSELCGGARICYIFHETFGRTLESVDPLGGLNTIDILTAIRNATGPRPALFVPEVSFELLVKRQIKRLEEPSLRCVELVHEEMQRIIQHCSNYSTQELLRFPKLHDAIVEVVTCLLRKRLPVTNEMVHNLVAIELAYINTKHPDFADACGLMNNNIEEQRDCEVIERLIKSYFLIVRKNIQDSVPKAVMHFLVNHVKDTLQSELVGQLYKSSLLDDLLTESEDMAQRRKEAADMLKALQGASQIIAEIRETHLW |  |  | 4

From paper PMC6051998, “Steric interference from intrinsically disordered regions controls dynamin-related protein 1 self-assembly during mitochondrial fission” (Scientific Reports, 2018)
